Experiments:
Assay in all cases: holdup assay
Set-up in all cases: key: below the threshold = too weak to quantify, mostly under pKd 3.1 to 4
Conditions in all cases: plain residues with an end cap or a label only (N-terminal biotin on a linker: ttds)
[1] = molecular target: Inadl_3, Q8NI35
[2] = molecular target: LNX1_1, Q8TBB1
[3] = molecular target: HTRA2, O43464
[4] = molecular target: MAST2, Q6P0Q8
[5] = molecular target: SCRIB_1, Q14160
[6] = molecular target: T1, NHERF3_4, Q5T2W1
T1 sequence (Q5T2W1 373-468, limits assumed, looked up): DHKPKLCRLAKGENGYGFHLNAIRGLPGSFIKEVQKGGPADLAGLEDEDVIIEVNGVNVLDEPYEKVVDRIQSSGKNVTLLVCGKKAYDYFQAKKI

[7] = molecular target: T2, DVL3, Q92997
T2 sequence (Q92997 244-331, limits assumed, looked up): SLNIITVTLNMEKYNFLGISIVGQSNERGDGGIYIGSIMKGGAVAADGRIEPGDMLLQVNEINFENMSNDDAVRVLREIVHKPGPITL

[8] = molecular target: FRMPD4, Q14CM0
Chain of FRMPD4, Q14CM0 (Q14CM0 67-160): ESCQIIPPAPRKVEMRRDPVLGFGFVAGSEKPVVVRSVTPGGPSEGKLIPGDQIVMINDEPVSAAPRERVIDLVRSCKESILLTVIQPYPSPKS

[9] = molecular target: T3, APBA1_1, Q02410
T3 sequence (Q02410 651-752, limits assumed, looked up): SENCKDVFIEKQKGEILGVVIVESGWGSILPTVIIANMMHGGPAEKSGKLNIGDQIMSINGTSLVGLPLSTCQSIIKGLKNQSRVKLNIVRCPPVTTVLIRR

[10] = molecular target: T4, GRIP1_4, Q9Y3R0
T4 sequence (Q9Y3R0 467-571, limits assumed, looked up): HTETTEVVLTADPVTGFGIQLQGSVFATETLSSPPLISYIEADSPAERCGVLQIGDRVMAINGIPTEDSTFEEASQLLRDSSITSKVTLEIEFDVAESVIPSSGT

[11] = molecular target: T5, TX1BP3, O14907
T5 sequence (O14907 10-122, limits assumed, looked up): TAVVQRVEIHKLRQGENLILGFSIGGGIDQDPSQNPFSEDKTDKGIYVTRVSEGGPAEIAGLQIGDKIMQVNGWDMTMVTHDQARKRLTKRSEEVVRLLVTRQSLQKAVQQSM

[12] = molecular target: AHNAK1, Q09666
Chain of AHNAK1, Q09666 (Q09666 4-100): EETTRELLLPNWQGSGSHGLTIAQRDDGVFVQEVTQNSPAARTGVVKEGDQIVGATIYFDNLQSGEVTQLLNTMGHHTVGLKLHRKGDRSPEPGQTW

[13] = molecular target: T6, HTRA3, P83110
T6 sequence (P83110 354-453, limits assumed, looked up): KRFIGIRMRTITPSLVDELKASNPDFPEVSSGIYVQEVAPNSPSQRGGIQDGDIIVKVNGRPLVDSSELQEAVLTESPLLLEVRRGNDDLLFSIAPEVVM

[14] = molecular target: TJP1_3, Q07157
Chain of TJP1_3, Q07157 (Q07157 416-512): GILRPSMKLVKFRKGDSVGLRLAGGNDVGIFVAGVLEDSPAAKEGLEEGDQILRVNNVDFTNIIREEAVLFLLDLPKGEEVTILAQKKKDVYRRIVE

[15] = molecular target: TJP2_1, Q9UDY2
Chain of TJP2_1, Q9UDY2 (Q9UDY2 24-128): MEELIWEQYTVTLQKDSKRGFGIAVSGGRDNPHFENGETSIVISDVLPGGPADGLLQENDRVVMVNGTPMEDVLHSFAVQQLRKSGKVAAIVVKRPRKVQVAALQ

[16] = molecular target: Inadl_2, Q8NI35
Chain of Inadl_2, Q8NI35 (Q8NI35 238-335): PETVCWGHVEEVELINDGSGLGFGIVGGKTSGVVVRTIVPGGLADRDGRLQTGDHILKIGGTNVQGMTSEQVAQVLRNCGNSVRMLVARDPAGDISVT

[17] = molecular target: T7, GRIP1_3, Q9Y3R0
T7 sequence (Q9Y3R0 247-346, limits assumed, looked up): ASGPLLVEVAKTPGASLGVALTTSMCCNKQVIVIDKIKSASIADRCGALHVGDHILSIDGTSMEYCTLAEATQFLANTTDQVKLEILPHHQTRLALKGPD

[18] = molecular target: T8, PDZD7_3, Q9H5P4
T8 sequence (Q9H5P4 857-944, limits assumed, looked up): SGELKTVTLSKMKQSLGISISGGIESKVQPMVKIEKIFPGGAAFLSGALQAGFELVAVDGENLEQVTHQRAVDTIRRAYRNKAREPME

[19] = molecular target: T9, DFNB31_1, Q9P202
T9 sequence (Q9P202 135-233, limits assumed, looked up): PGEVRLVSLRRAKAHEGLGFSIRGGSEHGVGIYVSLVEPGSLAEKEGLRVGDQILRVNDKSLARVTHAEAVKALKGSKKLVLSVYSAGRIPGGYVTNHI

[20] = molecular target: MAGI2_3, Q86UL8
Chain of MAGI2_3, Q86UL8 (Q86UL8 600-682): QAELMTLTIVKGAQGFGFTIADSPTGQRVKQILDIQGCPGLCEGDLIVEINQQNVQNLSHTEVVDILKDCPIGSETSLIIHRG

[21] = molecular target: T10, SYNJ2BP, P57105
T10 sequence (P57105 8-110, limits assumed, looked up): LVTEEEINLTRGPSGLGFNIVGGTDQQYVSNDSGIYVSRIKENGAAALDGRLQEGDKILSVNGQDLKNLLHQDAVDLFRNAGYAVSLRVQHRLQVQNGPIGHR

[22] = molecular target: GRIP2_7, Q9C0E4
Chain of GRIP2_7, Q9C0E4 (Q9C0E4 934-1023): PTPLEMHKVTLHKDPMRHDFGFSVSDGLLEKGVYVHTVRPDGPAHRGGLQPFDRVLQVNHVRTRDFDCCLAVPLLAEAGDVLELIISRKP

[23] = molecular target: IL16_4, Q14005
Chain of IL16_4, Q14005 (Q14005 1229-1329): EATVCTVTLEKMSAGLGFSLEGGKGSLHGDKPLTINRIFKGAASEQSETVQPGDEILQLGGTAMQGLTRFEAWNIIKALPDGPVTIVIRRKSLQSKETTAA

[24] = molecular target: Inadl_10, Q8NI35
Chain of Inadl_10, Q8NI35 (Q8NI35 1673-1763): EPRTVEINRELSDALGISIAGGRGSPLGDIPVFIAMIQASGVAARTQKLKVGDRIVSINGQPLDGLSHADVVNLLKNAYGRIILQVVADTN

[25] = molecular target: NHERF4_4, Q86UT5
Chain of NHERF4_4, Q86UT5 (Q86UT5 464-550): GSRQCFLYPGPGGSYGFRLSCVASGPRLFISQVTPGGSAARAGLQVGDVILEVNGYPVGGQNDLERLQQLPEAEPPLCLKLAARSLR

[26] = molecular target: SCRIB_2, Q14160
Chain of SCRIB_2, Q14160 (Q14160 857-960): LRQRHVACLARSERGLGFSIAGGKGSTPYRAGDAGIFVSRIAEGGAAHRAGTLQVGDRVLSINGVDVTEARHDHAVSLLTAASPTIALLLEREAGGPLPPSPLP

[27] = molecular target: DLG4_2, P78352
Chain of DLG4_2, P78352 (P78352 155-259): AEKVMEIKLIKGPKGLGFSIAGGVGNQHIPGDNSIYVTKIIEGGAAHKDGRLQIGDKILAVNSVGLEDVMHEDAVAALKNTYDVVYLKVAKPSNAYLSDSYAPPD

[28] = molecular target: GIPC2, Q8TF65
Chain of GIPC2, Q8TF65 (Q8TF65 112-203): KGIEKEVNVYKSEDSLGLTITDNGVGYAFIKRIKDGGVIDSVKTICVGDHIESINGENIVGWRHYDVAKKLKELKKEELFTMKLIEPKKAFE

Chain of MAST2, Q6P0Q8 (Q6P0Q8 1099-1202): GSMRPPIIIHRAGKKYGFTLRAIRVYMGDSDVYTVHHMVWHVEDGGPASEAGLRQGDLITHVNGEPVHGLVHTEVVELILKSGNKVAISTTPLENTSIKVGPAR
Chain of Inadl_3, Q8NI35 (Q8NI35 359-469): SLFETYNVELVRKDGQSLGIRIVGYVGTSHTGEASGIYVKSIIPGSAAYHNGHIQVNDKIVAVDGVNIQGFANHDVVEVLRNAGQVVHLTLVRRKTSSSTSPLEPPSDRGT
Chain of HTRA2, O43464 (O43464 355-458): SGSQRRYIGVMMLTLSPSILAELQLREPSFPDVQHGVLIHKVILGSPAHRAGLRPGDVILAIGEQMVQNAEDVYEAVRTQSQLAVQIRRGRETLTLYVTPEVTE
Chain of SCRIB_1, Q14160 (Q14160 718-814): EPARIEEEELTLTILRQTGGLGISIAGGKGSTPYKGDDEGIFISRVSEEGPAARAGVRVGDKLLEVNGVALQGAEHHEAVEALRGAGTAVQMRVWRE
Chain of LNX1_1, Q8TBB1 (Q8TBB1 261-371): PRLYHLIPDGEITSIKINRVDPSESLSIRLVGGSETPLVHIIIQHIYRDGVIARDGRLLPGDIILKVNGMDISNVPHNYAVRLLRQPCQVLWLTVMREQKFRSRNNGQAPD

pKd [1]: 4
pKd [2]: 3.59
pKd [3]: 3.68
pKd [4]: 5.92
pKd [5]: 6.07
pKd [6]: 4.78
pKd [7]: below the threshold
pKd [8]: 4.64
pKd [9]: below the threshold
pKd [10]: below the threshold
pKd [11]: 5.11
pKd [12]: below the threshold
pKd [13]: below the threshold
pKd [14]: below the threshold
pKd [15]: below the threshold
pKd [16]: below the threshold
pKd [17]: below the threshold
pKd [18]: 5.27
pKd [19]: 4.63
pKd [20]: below the threshold
pKd [21]: 5.56
pKd [22]: below the threshold
pKd [23]: below the threshold
pKd [24]: 3.52
pKd [25]: 4.24
pKd [26]: 4.92
pKd [27]: 4.23
pKd [28]: below the threshold
B1: ABCC4, O15439 (peptide)
chain: STLTIFETAL
